{"source": "patent US20180142032A1", "about": "(Sanofi, published 2018)", "key": {"hLAMP1_ΔGYQTI": {"target": "T1, hLAMP1_ΔGYQTI (human, UniProt P11279 29-412)", "T1 construct": "also called pXL5626", "T1 sequence": "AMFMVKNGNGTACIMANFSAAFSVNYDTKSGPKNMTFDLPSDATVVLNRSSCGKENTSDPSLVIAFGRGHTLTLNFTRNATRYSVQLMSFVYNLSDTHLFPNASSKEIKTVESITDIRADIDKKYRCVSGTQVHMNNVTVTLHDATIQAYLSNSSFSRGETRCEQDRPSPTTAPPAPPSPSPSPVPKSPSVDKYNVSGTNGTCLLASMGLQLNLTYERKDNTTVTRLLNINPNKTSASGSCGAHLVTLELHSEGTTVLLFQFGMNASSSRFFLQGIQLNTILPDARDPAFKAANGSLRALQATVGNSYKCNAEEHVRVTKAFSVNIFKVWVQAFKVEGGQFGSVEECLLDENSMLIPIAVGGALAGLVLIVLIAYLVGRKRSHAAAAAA", "assay": "flow cytometry, transfected 293-F cells"}, "LAMP1::histag": {"target": "T2, LAMP1::histag (human, UniProt P11279 29-382)", "T2 construct": "extracellular domain without signal peptide, C-terminal 6 His tag, made in HEK293 cells; also called recombinant human LAMP1; human LAMP1 (29-382)", "T2 sequence": "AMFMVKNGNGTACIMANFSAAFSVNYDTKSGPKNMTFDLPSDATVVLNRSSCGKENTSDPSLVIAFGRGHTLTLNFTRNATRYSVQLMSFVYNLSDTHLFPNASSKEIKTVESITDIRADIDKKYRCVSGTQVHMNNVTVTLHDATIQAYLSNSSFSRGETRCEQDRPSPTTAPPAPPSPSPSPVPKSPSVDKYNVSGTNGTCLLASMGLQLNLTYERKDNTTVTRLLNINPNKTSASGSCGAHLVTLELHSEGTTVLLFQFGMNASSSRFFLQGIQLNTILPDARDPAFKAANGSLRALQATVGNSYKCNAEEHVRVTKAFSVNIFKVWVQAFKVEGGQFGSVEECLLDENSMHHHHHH", "assay": "ELISA on secreted LAMP1::histag"}, "LAMP1_mseq4_ΔGYQTI": {"target": "T3, LAMP1_mseq4_ΔGYQTI (human; mouse)", "T3 construct": "on cells; also called pXL6015", "assay": "flow cytometry, transfected 293-F cells"}, "[1]": {"target": "T4, cynomolgus monkey LAMP1 at the cell surface (cynomolgus monkey, UniProt P11279 29-417 (human entry))", "T4 construct": "also called cynoLAMP1; cynomolgus LAMP1", "T4 chain": "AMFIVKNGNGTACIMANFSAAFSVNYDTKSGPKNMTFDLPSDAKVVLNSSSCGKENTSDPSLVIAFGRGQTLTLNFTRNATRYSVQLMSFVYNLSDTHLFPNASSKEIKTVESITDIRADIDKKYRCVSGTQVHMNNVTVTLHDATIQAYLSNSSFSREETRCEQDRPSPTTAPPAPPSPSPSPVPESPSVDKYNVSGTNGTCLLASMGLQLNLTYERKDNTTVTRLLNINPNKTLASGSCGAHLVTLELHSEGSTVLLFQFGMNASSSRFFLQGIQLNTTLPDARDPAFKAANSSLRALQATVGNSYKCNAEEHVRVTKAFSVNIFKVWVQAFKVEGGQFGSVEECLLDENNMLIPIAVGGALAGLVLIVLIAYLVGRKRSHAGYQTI", "assay": "flow cytometry, HCT116 stable clones; cynomolgus LAMP1 on recombinant HCT116 stable clones", "procedure": "HCT116 cells were infected by a lentiviral vector allowing stable integration of the human or the cynomolgus LAMP1 CDS in genomic DNA of cells. Individual clones with different densities of human or cynomolgus LAMP1 cell surface localization were derived from a pool of HCT116 infected cells. […] 100 μL/well of goat anti-human IgG conjugated with Alexa488 (Invitrogen; # A11013) was added for 1 h at 4° C. and washed two times with PBS 1% BSA. The antibody binding was evaluated after centrifugation and resuspension of cells in 100 μl fixing solution (paraformaldehyde at 4% in PBS). Samples were read using Galaxy® Flow Cytometry System (Partec). EC50 values were estimated using BIOST@T-SPEED software."}, "cLAMP1::histag": {"target": "T5, cLAMP1::histag (cynomolgus monkey, UniProt P11279 29-380 (human entry))", "T5 construct": "extracellular domain with C-terminal tag that includes 6 His; also called cynomolgus LAMP1 (27-380); cynomolgus monkey LAMP1 protein", "T5 chain": "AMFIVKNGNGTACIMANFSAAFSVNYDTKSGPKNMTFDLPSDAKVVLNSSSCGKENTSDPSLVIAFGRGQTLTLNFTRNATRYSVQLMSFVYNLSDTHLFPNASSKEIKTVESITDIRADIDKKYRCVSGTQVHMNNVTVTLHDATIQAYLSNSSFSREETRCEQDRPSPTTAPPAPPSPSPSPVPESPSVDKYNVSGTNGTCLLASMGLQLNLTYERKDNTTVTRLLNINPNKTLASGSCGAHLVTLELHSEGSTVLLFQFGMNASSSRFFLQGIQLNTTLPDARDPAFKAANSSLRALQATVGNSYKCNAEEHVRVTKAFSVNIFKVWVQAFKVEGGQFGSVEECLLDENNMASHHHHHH", "assay": "ELISA on coated recombinant LAMP1 extracellular domain, detected with anti-mouse IgG-HRP; antibody concentration not given", "excerpt": "The antibody binding was visualized by adding TMB-H₂O₂ buffer and read at a wavelength of 450 nm."}, "[2]": {"target": "T4, cynomolgus monkey LAMP1 at the cell …", "assay": "flow cytometry, HEK293 stable clone", "excerpt": "HCT116 stable clone was obtained as described above. HEK293 cells were infected by a lentiviral vector allowing stable integration of the human or the cynomolgus LAMP1 CDS in genomic DNA of cells. Individual clones with different densities of cynomolgus LAMP1 cell surface localization were derived from a pool of HEK293 infected cells. Protocol as described in example above. EC₅₀ values were estimated using BIOST@T-SPEED software."}, "mLAMP1_ΔGYQTI": {"target": "T6, mLAMP1_ΔGYQTI (mouse, UniProt P11438 25-369)", "T6 construct": "on cells; also called pXL6009; murine LAMP1; not shown: murine transmembrane domain and cytoplasmic tail with GYQTI replaced by 5 Ala", "T6 sequence": "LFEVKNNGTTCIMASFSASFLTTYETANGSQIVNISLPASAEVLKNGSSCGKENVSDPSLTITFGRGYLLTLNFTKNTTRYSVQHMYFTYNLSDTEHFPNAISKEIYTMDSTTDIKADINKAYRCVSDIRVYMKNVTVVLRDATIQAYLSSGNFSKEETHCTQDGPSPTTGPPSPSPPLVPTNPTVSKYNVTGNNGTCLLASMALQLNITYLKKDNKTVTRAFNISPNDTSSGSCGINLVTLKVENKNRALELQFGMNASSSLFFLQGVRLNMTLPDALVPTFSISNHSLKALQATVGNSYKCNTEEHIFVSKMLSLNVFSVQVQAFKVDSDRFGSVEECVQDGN", "assay": "flow cytometry, transfected 293-F cells"}}}
{"binder": "huMAb1_1 (antibody, human IgG1, kappa, humanized, VH1-huIgG1 and VL1-huCk) heavy: not shown light: DIQMTQSPSSLSASVGDRVTITCKASQDIDRYMAWYQDKPGKAPRLLIHDTSTLQSGVPSRFSGSGSGRDYTLTISNLEPEDFATYYCLQYDNLWTFGGGTKVEIKRTVAAPSVFIFPPSDEQLKSGTASVVCLLNNFYPREAKVQWKVDNALQSGNSQESVTEQDSKDSTYSLSSTLTLSKADYEKHKVYACEVTHQGLSSPVTKSFNRGEC", "values": [{"measurement": "mean fluorescence", "setting": "hLAMP1_ΔGYQTI", "result": 864}]}
{"binder": "MAb1 (antibody, mouse IgG2a, kappa, murine monoclonal IgG, kappa, from hybridoma; also called murine MAb1) heavy: QVQLQQSGAELVKPGASVKMSCKASGYIFTNYNIHWVKKSPGQGLEWIGAIYPGNGDAPYSQKFKDKATLTADKSSSTTYMQLSRLTSEDSAVYYCVRANWDVAFAYWGQGTLVSVSAAKTTAPSVYPLAPVCGDTTGSSVTLGCLVKGYFPEPVTLTWNSGSLSSGVHTFPAVLQSDLYTLSSSVTVTSSTWPSQSITCNVAHPASSTKVDKKIEPRGPTIKPCPPCKCPAPNLLGGPSVFIFPPKIKDVLMISLSPIVTCVVVDVSEDDPDVQISWFVNNVEVHTAQTQTHREDYNSTLRVVSALPIQHQDWMSGKEFKCKVNNKDLPAPIERTISKPKGSVRAPQVYVLPPPEEEMTKKQVTLTCMVTDFMPEDIYVEWTNNGKTELNYKNTEPVLDSDGSYFMYSKLRVEKKNWVERNSYSCSVVHEGLHNHHTTKSFSRTPGK light: DIQMTQSPPSLSASLGGKVTITCKASQDIDRYMAWYQDKPGKGPRLLIHDTSTLQPGIPSRFSGSGSGRDYSFSISNLEPEDIATYYCLQYDNLWTFGGGTKLEIKRADAAPTVSIFPPSSEQLTSGGASVVCFLNNFYPKDINVKWKIDGSERQNGVLNSWTDQDSKDSTYSMSSTLTLTKDEYERHNSYTCEATHKTSTSPIVKSFNRNEC", "values": [{"measurement": "EC50", "setting": "LAMP1::histag", "result": 0.16, "unit": "nM"}, {"measurement": "mean fluorescence", "setting": "LAMP1_mseq4_ΔGYQTI", "result": 891}, {"measurement": "EC50", "setting": "[1]", "result": 5.5, "unit": "nM"}, {"measurement": "binding result", "setting": "cLAMP1::histag", "result": "binds"}]}
{"binder": "MAb3 (antibody, V domains shown, murine monoclonal IgG, kappa, from hybridoma; also called murine MAb3) VH: QIQLVQSGPELKKPGETVKISCKASGYIFTNYGMNWVKQAPGKGLKWMGWINTYTGESRYADDFKGRFALSLETSASTAYLQINNLENEDMATYFCAREDYYGNSPWFFDVWGAGTTVTVSS VL: DIQMTQTTSSLSASLGDRVTISCNASQGINKYLNWYQQKPDGTVKLLIYYTSTLHSGVPSRFSGSGSGTDYSLTINNLEPEDIATYYCQQYTKLPFTFGSGTKLEIK", "values": [{"measurement": "EC50", "setting": "[2]", "result": 4, "unit": "nM"}, {"measurement": "binding result", "setting": "mLAMP1_ΔGYQTI", "result": "no binding"}]}
